Experimental data published in patent US20260308262 (published 2026).

Target: CD161 (human)
Assay: other (literature value, Kamishikiryo et al 2011)

Chain of CD161 (human) (chain, as listed by the source): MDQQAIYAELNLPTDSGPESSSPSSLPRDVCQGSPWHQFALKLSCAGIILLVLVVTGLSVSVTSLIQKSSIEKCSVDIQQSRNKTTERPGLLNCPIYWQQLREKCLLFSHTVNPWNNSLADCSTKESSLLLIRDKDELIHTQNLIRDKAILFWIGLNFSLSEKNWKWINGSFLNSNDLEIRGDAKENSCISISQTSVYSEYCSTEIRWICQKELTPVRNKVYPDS

Kd: 48 µM
B1: CLEC2D (protein)
chain: RANCHQEPSVCLQAACPESWIGFQRKCFYFSDDTKNWTSSQRFCDSQDADLAQVESFQELNFLLRYKGPSDHWIGLSREQGQPWKWINGTEWTRQFPILGAGECAYLNDKGASSARHYTERKWICSKSDIHV
